Data on four molecules can be found in patent publication US20030204066A1 (published 2003).

The target in assay [1] is T1, human lymphotoxin (TNFβ) (human, UniProt P01374 35-205, limits assumed).
T1 sequence (looked up): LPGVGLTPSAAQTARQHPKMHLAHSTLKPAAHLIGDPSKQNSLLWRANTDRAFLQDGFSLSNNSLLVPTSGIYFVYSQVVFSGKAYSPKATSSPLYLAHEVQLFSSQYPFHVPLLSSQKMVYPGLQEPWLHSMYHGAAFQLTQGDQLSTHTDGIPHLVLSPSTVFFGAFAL
As to the kind of experiment: cell-based or functional assay.

Assay [2] has as its target human tumor necrosis factor-α (TNFα) (human, UniProt P01375 77-233). The experiment in a line: cell-based or functional assay.

Chain of human tumor necrosis factor-α (TNFα) (P01375 77-233): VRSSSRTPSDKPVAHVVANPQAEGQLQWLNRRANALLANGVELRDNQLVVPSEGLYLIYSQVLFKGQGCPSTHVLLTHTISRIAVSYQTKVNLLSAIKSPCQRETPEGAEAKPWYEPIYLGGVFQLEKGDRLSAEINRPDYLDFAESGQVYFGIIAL

B1: p75-sf2 (complete p75 extracellular domain / IgG1 heavy chain fusion) (Fc fusion)
chain 1: QLPAQVAFTPYAPEPGSTCRLREYYDQTAQMCCSKCSPGQHAKVFCTKTSDTVCDSCEDSTYTQLWNWVPECLSCGSRCSSDQVETQACTREQNRICTCRPGWYCALSKQEGCRLCAPLRKCRPGFGVARPGTETSDVVCKPCAPGTFSNTTSSTDICRPHQICNVVAIPGNASMDAVCTSTSPTRSMAPGAVHLPQPVSTRSQHTQPTPEPSTAPSTSFLLPMGPSPPAEGSTGDGTLVTVSS
chain 2: GTKLEIK
Take B1: the “amount needed for the same inhibition of TNFβ cytotoxicity, against p75P-sf2” value in assay [1] is 3 fold (against p75P-sf2).

B2: p55-sf2 (p55 TNF receptor / IgG1 heavy chain single fusion with truncated light chain JCK) (Fc fusion)
chain 1: QVCPQGKYIHPQNNSICCTKCHKGTYLYNDCPGPGQDTDCRECESGSFTASENHLRHCLSCSKCRKEMGQVEISSCTVDRDTVCGCRKNQYRHYWSENLFQCFNCSLCLNGTVHLSCQEKQNTVCTCHAGFFLRENECVSCSNCKKSLECTKLCLPQIGTLVTVSS
chain 2: GTKLEIK
Consider B2, for which the “IC50 = concentration of fusion protein required to inhibit 2 ng/ml (39.2 pM) TNFα by 50% (WEHI 164 cytotoxicity)” value in assay [2] stood at 70 pM.

B3: p55-df2 (double fusion: p55 on both the IgG1 heavy chain and the kappa light chain) (Fc fusion)
chain 1: QVCPQGKYIHPQNNSICCTKCHKGTYLYNDCPGPGQDTDCRECESGSFTASENHLRHCLSCSKCRKEMGQVEISSCTVDRDTVCGCRKNQYRHYWSENLFQCFNCSLCLNGTVHLSCQEKQNTVCTCHAGFFLRENECVSCSNCKKSLECTKLCLPQIGTLVTVSS
chain 2: DSVCPQGKYIHPQNNSICCTKCHKGTYLYNDCPGPGQDTDCRECESGSFTASENHLRHCLSCSKCRKEMGQVEISSCTVDRDTVCGCRKNQYRHYWSENLFQCFNCSLCLNGTVHLSCQEKQNTVCTCHAGFFLRENECVSCSNCKKSLECTKLCLPQIGTKLEIK
In the case of B3, in assay [2], the “IC50 = concentration of fusion protein required to inhibit 2 ng/ml (39.2 pM) TNFα by 50% (WEHI 164 cytotoxicity)” value was found to be 55 pM.

B4: p75P-sf2 (p75 amino acids 1-182 / IgG1 heavy chain fusion) (Fc fusion)
chain 1: QLPAQVAFTPYAPEPGSTCRLREYYDQTAQMCCSKCSPGQHAKVFCTKTSDTVCDSCEDSTYTQLWNWVPECLSCGSRCSSDQVETQACTREQNRICTCRPGWYCALSKQEGCRLCAPLRKCRPGFGVARPGTETSDVVCKPCAPGTFSNTTSSTDICRPHQICNVVAIPGNASMDAVCTSTSGTLVTVSS
chain 2: GTKLEIK
With B4, the “IC50 = concentration of fusion protein required to inhibit 2 ng/ml (39.2 pM) TNFα by 50% (WEHI 164 cytotoxicity)” value in assay [2] is 70 pM.
